Here are results for two molecules from article PMC10441363 (bioRxiv, 2023).

This assay has as its target hemagglutinin (HA) of A/WSN/1933 (H1N1) (Influenza A virus A/WSN/1933 (H1N1), UniProt I4EPC4). The experiment in a line: virus aggregation by fluorescence microscopy.

Sequence of hemagglutinin (HA) of A/WSN/1933 (H1N1) (P03454 18-565): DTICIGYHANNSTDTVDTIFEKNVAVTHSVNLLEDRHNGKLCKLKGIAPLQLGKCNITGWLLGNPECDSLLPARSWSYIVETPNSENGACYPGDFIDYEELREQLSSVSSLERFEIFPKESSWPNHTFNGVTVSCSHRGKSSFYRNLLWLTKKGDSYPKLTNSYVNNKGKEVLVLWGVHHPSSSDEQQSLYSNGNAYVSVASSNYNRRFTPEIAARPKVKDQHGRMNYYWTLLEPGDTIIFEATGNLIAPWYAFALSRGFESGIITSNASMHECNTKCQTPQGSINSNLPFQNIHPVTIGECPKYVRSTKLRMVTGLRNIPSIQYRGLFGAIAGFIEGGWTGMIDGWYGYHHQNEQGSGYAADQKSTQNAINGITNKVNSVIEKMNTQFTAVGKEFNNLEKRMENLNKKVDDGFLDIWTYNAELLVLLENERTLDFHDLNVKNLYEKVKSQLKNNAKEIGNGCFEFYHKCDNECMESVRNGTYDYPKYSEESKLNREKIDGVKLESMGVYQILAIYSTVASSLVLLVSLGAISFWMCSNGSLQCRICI

B1: C05 IgG (antibody, V domains shown)
VH: QVQLQESGGGLVQPGESLRLSCVGSGSSFGESTLSYYAVSWVRQAPGKGLEWLSIINAGGGDIDYADSVEGRFTISRDNSKETLYLQMTNLRVEDTGVYYCAKHMSMQQVVSAGWERADLVGDAFDVWGQGTMVTVSS
VL: DIQLTQSPSSLSASVGDRVTLTCQASQDIRKFLNWYQQKPGKGPKLLIYDASNLQRGVPSRFSGGGSGTDFTLIISSLQPEDVGTYYCQQYDGLPFTFGGGTKVVIK
Turning to B1, the binding result is “binds”.

B2: S139\1 IgG (antibody, V domains shown)
VH: QVQLQQSGTELKKPGASVKISCKATGYTFSSYWIEWIKQRPGHGLEWIGEILPEIGMTNYNENFKGKATFTANTSSNTVYMQLSSLTSEDSAVYYCARPYDYSWFAYWGQGTLVTVSA
VL: DIVMTQSQKFMSTSVGDRVSVTCKASQNVDTNVAWYQEKPGQSPKTLIYSASNRYSGVPDRFTGSASGTDFTLTITNVQSEDLAEYFCQQYNSYPYTFGGGTKLEIK
Turning to B2, the binding result is given as “binds”.
